Measured values as given in article PMC7861550.

B1: unnamed (parent)
chain: MDIDPYKEFGATVELLSFLPSDFFPSVRDLLDTASALYREALESPEHCSPHHTALRQAILCWGELMTLATWVGVNLEDPASRDLVVSYVNTNMGLKFRQLLWFHISCLTFGRETVIEYLVSFGVWIRTPPAYRPPNAPILSTLPETTVVRRRGRSPRRRTPSPRRRRSQSPRRRRSQSRESQC

Variants of: B1
Test: capsid assembly (Ca assem)
Conditions: with partner chain of the complex shown

Variant	ratio to parent
chain 1 S141T V148I V149I	0.98
chain 1 S141R	1.16
chain 1 S141D	1.11
chain 1 S141A	1.03
chain 1 L143A	1.05
chain 1 L143I	0.97
chain 1 T146A T147A	1.08
chain 1 L140A	1.32
chain 1 E145D	1.05
chain 1 T146D T147D	1.06
